Tests used:
[1] = biological target: spike of authentic SARS-CoV-2 virus BetaCoV/Australia/VIC01/2020 (SARS-CoV-2); assay: cell-based or functional assay
HCoV-HKU1 spike = biological target: T1, HCoV-HKU1 spike (HCoV-HKU1, UniProt Q5MQD0 13-1356); assay: FACS, transfected HEK293T cells, IgG4 antibody
T1 construct: whole, on cells
T1 sequence: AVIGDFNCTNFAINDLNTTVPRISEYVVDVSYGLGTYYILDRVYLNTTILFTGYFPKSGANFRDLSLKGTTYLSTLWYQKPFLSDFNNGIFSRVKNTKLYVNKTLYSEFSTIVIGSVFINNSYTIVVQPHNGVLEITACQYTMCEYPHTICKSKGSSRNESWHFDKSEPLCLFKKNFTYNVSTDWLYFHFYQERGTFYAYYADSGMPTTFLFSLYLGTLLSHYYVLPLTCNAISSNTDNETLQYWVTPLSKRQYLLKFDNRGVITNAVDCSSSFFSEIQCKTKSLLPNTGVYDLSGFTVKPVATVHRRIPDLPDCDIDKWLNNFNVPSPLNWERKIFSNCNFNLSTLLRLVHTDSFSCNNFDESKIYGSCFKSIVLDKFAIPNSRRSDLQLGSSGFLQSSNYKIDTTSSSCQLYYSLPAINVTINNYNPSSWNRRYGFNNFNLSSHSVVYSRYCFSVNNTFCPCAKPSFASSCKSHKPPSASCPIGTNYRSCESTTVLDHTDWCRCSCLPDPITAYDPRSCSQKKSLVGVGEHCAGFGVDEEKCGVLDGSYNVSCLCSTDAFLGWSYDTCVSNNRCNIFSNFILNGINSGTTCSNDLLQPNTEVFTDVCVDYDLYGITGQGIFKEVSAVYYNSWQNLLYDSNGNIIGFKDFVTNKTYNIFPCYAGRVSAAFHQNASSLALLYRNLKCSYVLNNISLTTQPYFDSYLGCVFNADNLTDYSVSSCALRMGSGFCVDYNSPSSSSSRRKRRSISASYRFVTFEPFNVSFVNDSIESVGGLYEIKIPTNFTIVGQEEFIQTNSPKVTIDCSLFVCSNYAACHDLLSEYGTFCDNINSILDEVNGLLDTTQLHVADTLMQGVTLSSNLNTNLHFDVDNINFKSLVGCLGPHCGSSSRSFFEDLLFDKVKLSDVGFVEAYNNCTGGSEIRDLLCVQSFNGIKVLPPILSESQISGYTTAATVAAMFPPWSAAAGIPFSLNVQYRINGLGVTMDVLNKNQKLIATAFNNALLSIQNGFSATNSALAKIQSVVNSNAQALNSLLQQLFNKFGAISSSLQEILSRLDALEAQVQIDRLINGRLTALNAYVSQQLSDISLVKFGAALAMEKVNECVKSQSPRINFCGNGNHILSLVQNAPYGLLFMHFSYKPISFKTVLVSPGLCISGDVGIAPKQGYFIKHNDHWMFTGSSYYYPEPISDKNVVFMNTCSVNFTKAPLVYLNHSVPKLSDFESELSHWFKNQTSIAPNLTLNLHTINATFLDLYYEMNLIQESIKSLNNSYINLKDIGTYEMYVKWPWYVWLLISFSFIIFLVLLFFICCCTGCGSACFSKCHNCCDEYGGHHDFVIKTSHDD

HCoV-OC43 spike = biological target: T2, HCoV-OC43 spike (HCoV-OC43, UniProt P36334 14-1353); assay: FACS, transfected HEK293T cells, IgG4 antibody
T2 construct: whole, on cells; also called HCoV-0C43 spike
T2 sequence: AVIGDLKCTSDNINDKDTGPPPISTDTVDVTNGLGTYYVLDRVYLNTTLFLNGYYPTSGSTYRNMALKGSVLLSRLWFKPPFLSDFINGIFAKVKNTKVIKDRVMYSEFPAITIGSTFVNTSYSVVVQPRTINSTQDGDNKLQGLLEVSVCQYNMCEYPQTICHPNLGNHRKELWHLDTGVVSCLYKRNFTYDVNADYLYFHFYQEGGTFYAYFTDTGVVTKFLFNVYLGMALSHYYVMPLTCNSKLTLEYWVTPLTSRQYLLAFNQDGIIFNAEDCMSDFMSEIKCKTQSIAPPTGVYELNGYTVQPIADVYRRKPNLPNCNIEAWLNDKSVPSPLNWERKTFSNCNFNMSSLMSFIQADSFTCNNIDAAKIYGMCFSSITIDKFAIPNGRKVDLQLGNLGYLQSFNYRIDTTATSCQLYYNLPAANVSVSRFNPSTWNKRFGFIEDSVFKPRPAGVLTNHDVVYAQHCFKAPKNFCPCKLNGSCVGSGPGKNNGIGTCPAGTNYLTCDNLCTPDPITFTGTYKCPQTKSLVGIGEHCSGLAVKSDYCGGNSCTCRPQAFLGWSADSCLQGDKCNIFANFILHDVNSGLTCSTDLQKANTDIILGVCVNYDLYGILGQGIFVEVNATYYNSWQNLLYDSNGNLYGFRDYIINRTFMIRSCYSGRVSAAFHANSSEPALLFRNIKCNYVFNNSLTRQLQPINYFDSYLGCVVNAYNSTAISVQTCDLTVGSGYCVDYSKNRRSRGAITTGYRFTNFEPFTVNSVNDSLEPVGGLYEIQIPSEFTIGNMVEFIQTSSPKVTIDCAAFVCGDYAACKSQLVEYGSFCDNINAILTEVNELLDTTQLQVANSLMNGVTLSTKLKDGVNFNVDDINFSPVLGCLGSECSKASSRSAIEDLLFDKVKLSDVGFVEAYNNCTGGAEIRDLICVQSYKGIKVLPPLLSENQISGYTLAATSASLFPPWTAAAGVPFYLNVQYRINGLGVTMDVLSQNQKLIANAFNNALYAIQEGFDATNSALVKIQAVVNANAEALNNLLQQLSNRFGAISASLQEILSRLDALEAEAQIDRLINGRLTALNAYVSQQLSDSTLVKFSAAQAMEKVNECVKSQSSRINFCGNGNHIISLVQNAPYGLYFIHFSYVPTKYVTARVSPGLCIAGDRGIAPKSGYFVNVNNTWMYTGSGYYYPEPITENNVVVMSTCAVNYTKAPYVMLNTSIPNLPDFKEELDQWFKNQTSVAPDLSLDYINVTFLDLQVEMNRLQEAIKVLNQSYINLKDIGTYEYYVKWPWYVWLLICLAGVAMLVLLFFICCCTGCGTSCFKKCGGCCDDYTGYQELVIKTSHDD

B1: S-B8 (antibody, V domains shown)
VH: QVQLVQSGGGLIQPGGSLRLSCAASGFTVSLSHMNWVRQAPGKGLEWVSITYGDGNSDYADSVKGRFTISRDNSKNTLYLQMNSLRAEDTAVYYCAREYYYGMDVWGQGTTVTVSS
VL: not shown
notes: also called S-B8 dimer
- NT50, authentic virus B VIC01 neutralization [1]: 0.88 nM
- binding result (HCoV-HKU1 spike): no binding
- binding result (HCoV-OC43 spike): no binding

B2: S-E6 (antibody, V domains shown)
VH: QVTLRESGPGLVKPSETLSLTCAVSGGSLSSVNYYWSWIRQHPGKGLEWIGYIYYSGSTNYNPSLKSRVTMSLDTSKNQFSLKLSSVTAADTAVYYCATPGAIMGALHIWGQGTLVTVSS
VL: QAVLTQPSSASSTPGQRVIISCSGSSSNIGSNTVSWYQQVPGAAPKLLIYFDYRRPSGVPDRFSGTRSGTSASLGISGLQSEDEADYYCAAWDDSLSAWVFGRGTKLTVLG
notes: also called S-E6 dimer; dimer S-E6
- NT50, authentic virus B VIC01 neutralization [1]: 0.15 nM
- binding result (HCoV-HKU1 spike): no binding
- binding result (HCoV-OC43 spike): no binding

B3: S-D4 (antibody, V domains shown)
VH: QVQLQESGGGVVQPGRSLRLSCEVSGFTFSDYGMHWVRQAPGKGLEWVAVIWSEGSTEYYADSVKGRFTISRDNSKDTLYLQMNSLRAEDTAVYYCARPGYPTSTDRSPAAAGARQYYYYGMDVWGQGTTVTVSS
VL: NFMLTQPHSVSESPGKTVTISCTRSGGSGAANYVQWYQQRPGSSPTTLIYEDSRRPPGVPDRFSGSVDTSSNSASLTISGLQTEDEADYYCQSYDSSNHVVFGGGTKLTVLG
notes: also called S-D4 dimer; S-D4 IgG4
- NT50, authentic virus B VIC01 neutralization [1]: 2.04 nM
- binding result (HCoV-HKU1 spike): no binding
- binding result (HCoV-OC43 spike): no binding

Source: patent US20220213176A1 (SHANGHAITECH UNIVERSITY, published 2022)
